Measurements published in patent US20220048967A1 (published 2022).
Numbering of substitutions follows the chain as printed. Numbered stars: 1 amine (or outer) side, 2 acyl side, 3 side chain; on linkers, the order of the positions; unused ones are H or OH. Square brackets hold non-standard residues; d marks the D form. Side chains are listed from the residue outwards. Ends that are not written are not given here. * marks the point of attachment. C20 diacid = O=C(O)CCCCCCCCCCCCCCCCCCC(=O)*; γGlu = O=C(O)[C@H](CCC(=O)[*:2])N[*:1]; αMeL = CC(C)C[C@](C)(N)C(=O)O; Dab = NCC[C@H](N)C(=O)O; Dap = NC[C@H](N)C(=O)O; AEEA = NCCOCCOCC(=O)O; Aib = CC(C)(N)C(=O)O

B1: Example 350 (peptide)
peptide: [dY][Aib]EGTFTSDYSI[αMeL]LD[Dab]K([AEEA-AEEA-γGlu-C20 diacid])AQ[Aib]EFIEYLIAGGPSSGAPPPS-NH2
modifications: N-terminus assumed
SMILES: CC[C@H](C)[C@H](NC(=O)[C@H](CC(C)C)NC(=O)[C@H](Cc1ccc(O)cc1)NC(=O)[C@H](CCC(=O)O)NC(=O)[C@@H](NC(=O)[C@H](Cc1ccccc1)NC(=O)[C@H](CCC(=O)O)NC(=O)C(C)(C)NC(=O)[C@H](CCC(N)=O)NC(=O)[C@H](C)NC(=O)[C@H](CCCCNC(=O)COCCOCCNC(=O)COCCOCCNC(=O)CC[C@H](NC(=O)CCCCCCCCCCCCCCCCCCC(=O)O)C(=O)O)NC(=O)[C@H](CCN)NC(=O)[C@H](CC(=O)O)NC(=O)[C@H](CC(C)C)NC(=O)[C@](C)(CC(C)C)NC(=O)[C@@H](NC(=O)[C@H](CO)NC(=O)[C@H](Cc1ccc(O)cc1)NC(=O)[C@H](CC(=O)O)NC(=O)[C@H](CO)NC(=O)[C@@H](NC(=O)[C@H](Cc1ccccc1)NC(=O)[C@@H](NC(=O)CNC(=O)[C@H](CCC(=O)O)NC(=O)C(C)(C)NC(=O)[C@H](N)Cc1ccc(O)cc1)[C@@H](C)O)[C@@H](C)O)[C@@H](C)CC)[C@@H](C)CC)C(=O)N[C@@H](C)C(=O)NCC(=O)NCC(=O)N1CCC[C@H]1C(=O)N[C@@H](CO)C(=O)N[C@@H](CO)C(=O)NCC(=O)N[C@@H](C)C(=O)N1CCC[C@H]1C(=O)N1CCC[C@H]1C(=O)N1CCC[C@H]1C(=O)N[C@@H](CO)C(N)=O
B2: Example 351 (peptide)
peptide: [dY][Aib]EGTFTSDYSI[αMeL]LD[Dap]K([AEEA-AEEA-γGlu-C20 diacid])AQ[Aib]EFIEYLIAGGPSSGAPPPS-NH2
modifications: N-terminus assumed
SMILES: CC[C@H](C)[C@H](NC(=O)[C@H](CC(C)C)NC(=O)[C@H](Cc1ccc(O)cc1)NC(=O)[C@H](CCC(=O)O)NC(=O)[C@@H](NC(=O)[C@H](Cc1ccccc1)NC(=O)[C@H](CCC(=O)O)NC(=O)C(C)(C)NC(=O)[C@H](CCC(N)=O)NC(=O)[C@H](C)NC(=O)[C@H](CCCCNC(=O)COCCOCCNC(=O)COCCOCCNC(=O)CC[C@H](NC(=O)CCCCCCCCCCCCCCCCCCC(=O)O)C(=O)O)NC(=O)[C@H](CN)NC(=O)[C@H](CC(=O)O)NC(=O)[C@H](CC(C)C)NC(=O)[C@](C)(CC(C)C)NC(=O)[C@@H](NC(=O)[C@H](CO)NC(=O)[C@H](Cc1ccc(O)cc1)NC(=O)[C@H](CC(=O)O)NC(=O)[C@H](CO)NC(=O)[C@@H](NC(=O)[C@H](Cc1ccccc1)NC(=O)[C@@H](NC(=O)CNC(=O)[C@H](CCC(=O)O)NC(=O)C(C)(C)NC(=O)[C@H](N)Cc1ccc(O)cc1)[C@@H](C)O)[C@@H](C)O)[C@@H](C)CC)[C@@H](C)CC)C(=O)N[C@@H](C)C(=O)NCC(=O)NCC(=O)N1CCC[C@H]1C(=O)N[C@@H](CO)C(=O)N[C@@H](CO)C(=O)NCC(=O)N[C@@H](C)C(=O)N1CCC[C@H]1C(=O)N1CCC[C@H]1C(=O)N1CCC[C@H]1C(=O)N[C@@H](CO)C(N)=O
B3: Example 352 (peptide)
peptide: XXEGTFTSDYSIXLDKKAQXAFIXYLIAGGPSSGAPPPS
modifications: D-Tyr1, Aib2, αMeL13, K17 conjugated to (2-[2-(2-Amino-ethoxy)-ethoxy]-acetyl)2-(γ-Glu)-CO-(CH2)18-CO2H, Aib20, D-Glu24, C-terminal amide (NH2)
B4: Example 353 (peptide)
peptide: B3 peptide with A21E, A28E
modifications: D-Tyr1, Aib2, αMeL13, K17 conjugated to (2-[2-(2-Amino-ethoxy)-ethoxy]-acetyl)2-(γ-Glu)-CO-(CH2)18-CO2H, Aib20, D-Glu24, C-terminal amide (NH2)
B5: Example 291 (peptide)
peptide: B3 peptide with K16X
modifications: D-Tyr1, Aib2, αMeL13, Orn16, K17 conjugated to (2-[2-(2-Amino-ethoxy)-ethoxy]-acetyl)2-(γ-Glu)-CO-(CH2)18-CO2H, Aib20, D-Glu24, C-terminal amide (NH2)
B6: Example 354 (peptide)
peptide: B3 peptide with K16X, A21E
modifications: D-Tyr1, Aib2, αMeL13, Orn16, K17 conjugated to (2-[2-(2-Amino-ethoxy)-ethoxy]-acetyl)2-(γ-Glu)-CO-(CH2)18-CO2H, Aib20, D-Glu24, C-terminal amide (NH2)
B7: Example 355 (peptide)
peptide: B3 peptide with K16X, A21E, A28E
modifications: D-Tyr1, Aib2, αMeL13, Orn16, K17 conjugated to (2-[2-(2-Amino-ethoxy)-ethoxy]-acetyl)2-(γ-Glu)-CO-(CH2)18-CO2H, Aib20, D-Glu24, C-terminal amide (NH2)
B8: Example 358 (peptide)
peptide: B3 peptide with K16X, I23V, X24E
modifications: D-Tyr1, Aib2, αMeL13, Orn16, K17 conjugated to (2-[2-(2-Amino-ethoxy)-ethoxy]-acetyl)2-(γ-Glu)-CO-(CH2)18-CO2H, Aib20, C-terminal amide (NH2)
B9: Example 359 (peptide)
peptide: B3 peptide with K16X, A21E, I23V, X24E
modifications: D-Tyr1, Aib2, αMeL13, Orn16, K17 conjugated to (2-[2-(2-Amino-ethoxy)-ethoxy]-acetyl)2-(γ-Glu)-CO-(CH2)18-CO2H, Aib20, C-terminal amide (NH2)
B10: Example 363 (peptide)
peptide: B3 peptide with K16X
modifications: D-Tyr1, Aib2, αMeL13, Orn16, K17 conjugated to (2-[2-(2-Amino-ethoxy)-ethoxy]-acetyl)2-(γ-Glu)-CO-(CH2)16-CO2H, Aib20, D-Glu24, C-terminal amide (NH2)
B11: Example 292 (peptide)
peptide: B3 peptide with A21E, X24E, Y25X
modifications: D-Tyr1, Aib2, αMeL13, K17 conjugated to (2-[2-(2-Amino-ethoxy)-ethoxy]-acetyl)2-(γ-Glu)-CO-(CH2)18-CO2H, Aib20, αMeY25, C-terminal amide (NH2)
B12: Example 293 (peptide)
peptide: B3 peptide with K16X, A21E, X24E, Y25X
modifications: D-Tyr1, Aib2, αMeL13, Orn16, K17 conjugated to (2-[2-(2-Amino-ethoxy)-ethoxy]-acetyl)2-(γ-Glu)-CO-(CH2)18-CO2H, Aib20, αMeY25, C-terminal amide (NH2)
B13: Example 365 (peptide)
peptide: B3 peptide with X24E, Y25X
modifications: D-Tyr1, Aib2, αMeL13, K17 conjugated to (2-[2-(2-Amino-ethoxy)-ethoxy]-acetyl)2-(γ-Glu)-CO-(CH2)18-CO2H, Aib20, αMeY25, C-terminal amide (NH2)
B14: Example 366 (peptide)
peptide: B3 peptide with K16X, X24E, Y25X
modifications: D-Tyr1, Aib2, αMeL13, Orn16, K17 conjugated to (2-[2-(2-Amino-ethoxy)-ethoxy]-acetyl)2-(γ-Glu)-CO-(CH2)18-CO2H, Aib20, αMeY25, C-terminal amide (NH2)

The binders below were run against human GLP-1 receptor (human, UniProt P43220 24-463) (assay: cell-based or functional assay).
B1 was tested, and the “hGLP1R GTPgS % Top” value was 64.1% and the “hGLP1R GTPgS Rel EC50” value was 0.589 nM.
With B2 the “hGLP1R GTPgS % Top” value was 66.5% and the “hGLP1R GTPgS Rel EC50” value was 0.563 nM.
For B3, the “hGLP1R GTPgS % Top” value was 63.5% and the “hGLP1R GTPgS Rel EC50” value was 0.552 nM.
With B4 the “hGLP1R GTPgS % Top” value was 63.1% and the “hGLP1R GTPgS Rel EC50” value was 1.96 nM.
B5 was tested, and the “hGLP1R GTPgS % Top” value was 65% and the “hGLP1R GTPgS Rel EC50” value was 0.466 nM.
In the case of B6, the “hGLP1R GTPgS % Top” value is reported as 53.3% and the “hGLP1R GTPgS Rel EC50” value is reported as 0.967 nM.
For B7, the “hGLP1R GTPgS % Top” value was 50.6% and the “hGLP1R GTPgS Rel EC50” value was 1.76 nM.
With B8 the “hGLP1R GTPgS % Top” value was 72.3% and the “hGLP1R GTPgS Rel EC50” value was 0.414 nM.
For B9, the “hGLP1R GTPgS % Top” value was 69.7% and the “hGLP1R GTPgS Rel EC50” value was 0.496 nM.
In the case of B10, the “hGLP1R GTPgS % Top” value is reported as 69.6% and the “hGLP1R GTPgS Rel EC50” value is reported as 0.943 nM.
For B11, the “hGLP1R GTPgS % Top” value was 71.5% and the “hGLP1R GTPgS Rel EC50” value was 0.429 nM.
For B12, the “hGLP1R GTPgS % Top” value was 70.6% and the “hGLP1R GTPgS Rel EC50” value was 0.368 nM.
In the case of B13, the “hGLP1R GTPgS % Top” value is reported as 66.9% and the “hGLP1R GTPgS Rel EC50” value is reported as 0.464 nM.
B14 was tested, and the “hGLP1R GTPgS % Top” value was 67.6% and the “hGLP1R GTPgS Rel EC50” value was 0.409 nM.

These binders were tested against Pro-Link-tagged Human GLP-1R (human, UniProt P43220 24-463) (assay: cell-based or functional assay).
With B1 the “hGLP1R B-Arrestin2 % Top” value was 21.8% and the “hGLP1R B-Arrestin2 Rel EC50” value was 10.8 nM.
For B2, the “hGLP1R B-Arrestin2 % Top” value was 23.5% and the “hGLP1R B-Arrestin2 Rel EC50” value was 19.6 nM.
In the case of B3, the “hGLP1R B-Arrestin2 % Top” value is reported as 17.4% and the “hGLP1R B-Arrestin2 Rel EC50” value is reported as 4.21 nM.
With B4 the “hGLP1R B-Arrestin2 % Top” value was 23% and the “hGLP1R B-Arrestin2 Rel EC50” value was 559 nM.
With B5 the “hGLP1R B-Arrestin2 Rel EC50” value was greater than 10000 nM.
With B6 the “hGLP1R B-Arrestin2 % Top” value was 22.7% and the “hGLP1R B-Arrestin2 Rel EC50” value was 255 nM.
In the case of B7, the “hGLP1R B-Arrestin2 % Top” value is reported as 18.3% and the “hGLP1R B-Arrestin2 Rel EC50” value is reported as 363 nM.
For B8, the “hGLP1R B-Arrestin2 % Top” value was 21.4% and the “hGLP1R B-Arrestin2 Rel EC50” value was 9.38 nM.
With B9 the “hGLP1R B-Arrestin2 % Top” value was 28.4% and the “hGLP1R B-Arrestin2 Rel EC50” value was 84.1 nM.
B10 was tested, and the “hGLP1R B-Arrestin2 % Top” value was 22.1% and the “hGLP1R B-Arrestin2 Rel EC50” value was 135 nM.
With B11 the “hGLP1R B-Arrestin2 % Top” value was 29% and the “hGLP1R B-Arrestin2 Rel EC50” value was 7.74 nM.
B12 was tested, and the “hGLP1R B-Arrestin2 % Top” value was 29.5% and the “hGLP1R B-Arrestin2 Rel EC50” value was 7.19 nM.
In the case of B13, the “hGLP1R B-Arrestin2 % Top” value is reported as 20.8% and the “hGLP1R B-Arrestin2 Rel EC50” value is reported as 7.03 nM.
With B14 the “hGLP1R B-Arrestin2 % Top” value was 21.2% and the “hGLP1R B-Arrestin2 Rel EC50” value was 5.57 nM.
